The text below walks through data of publication PMC13328618, “Heritable immunization of mice against Lyme disease enables ecological disease prevention” (Nature Communications, 2026).

Assay [1] has as its target recombinant outer surface protein A (rOspA) of Borrelia burgdorferi (Borrelia burgdorferi) (UniProt P0CL66).
The target in assay [2] is T1, biotinylated OspA protein (Borrelia burgdorferi, UniProt P0CL66, biotin (site not stated)).
T1 construct: outer surface protein A (OspA), Borrelia burgdorferi; biotinylated for capture on streptavidin biosensors; May be the GenScript rOspA after biotinylation; also called biotinylated OspA proteins
In words: BLI; Octet Red96; biotinylated OspA immobilised on streptavidin biosensors; antibody 3.7-300 nM, 180 s association, 600 s dissociation in PBST with 0.1% bovine serum albumin; global fitting. Conditions: both partners purified. Background: Biolayer interferometry detects binding as a change in optical thickness at a sensor tip.

The target in assay [3] is T2, recombinant outer surface protein A (rOspA) of Borrelia burgdorferi (Borrelia burgdorferi, UniProt P0CL66).
T2 construct: outer surface protein A (OspA), Borrelia burgdorferi; recombinant; source: produced by GenScript
The assay is described as follows: ELISA; plates coated with 5 µg/mL rOspA; supernatants of transfected Lenti-X 293T cells 72 h after transfection; detection with mouse IgG2b ELISA kit. Conditions: one partner purified. In general terms: An ELISA detects its analyte on a solid surface through an enzyme-linked reagent.

Assay [4] concerns the target T2, recombinant outer surface protein A …. The assay is described as follows: ELISA; plates coated with rOspA at 5 µg/mL; mouse serum applied; detection with IgG ELISA detection kit; purified LA-2 IgG2a as standard. Conditions: one partner purified.

T1 sequence (P0CL66 17-273): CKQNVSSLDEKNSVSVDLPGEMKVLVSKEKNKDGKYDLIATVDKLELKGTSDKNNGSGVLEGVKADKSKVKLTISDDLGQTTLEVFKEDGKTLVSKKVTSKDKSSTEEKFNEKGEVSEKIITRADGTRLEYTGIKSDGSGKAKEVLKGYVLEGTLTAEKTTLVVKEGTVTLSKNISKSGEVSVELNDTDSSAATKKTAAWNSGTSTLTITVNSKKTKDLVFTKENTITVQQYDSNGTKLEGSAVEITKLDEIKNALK
T2 sequence (P0CL66 17-273): as above
recombinant outer surface protein A (rOspA) of Borrelia burgdorferi (Borrelia burgdorferi), sequence (P0CL66 17-273): as above

For the molecule “LA-2 scFv-albumin fusion protein expressed in Rosa26-targeted mice”, in assay [1], the xenodiagnosis: engineered (heterozygous) mice free of infection, by spirochetes in larval ticks fed 21 days after challenge with 10 B. burgdorferi-infected nymphs turned out to be 80%.

B1: full-length LA-2 IgG2a (antibody, V domains shown)
VH: QIQLVQSGPELKKPGETVKISCKASGYTFTDYSMYWVKQAPGKGLKRMGWINTETGEPTYADDFKGRFALSLDTSASTAYLHISNLKNEDTATYFCARGLDSWGQGTSVTVSS
VL: DIQMTQSPSSLSATLGGKVTITCKASQDINKYIAWYQHKPGKGPRLLIHYTSTLQPGNPSRFSGSGSGRDYSFSISNLEAEDIAIYYCLQYDNLQRTFGGGTKVEIK
notes: LA-2 heavy-chain variable region; mouse IgG2a heavy-chain constant region; LA-2 light-chain variable region; light-chain constant region; IgG2a; plasmid constructed by GenScript; source: Expi293F, transfected, purified (Protein A-Sepharose 4B)
On to B1, for which the binding result in assay [2] was “binds”.

B2: LA-2 scFv-Fc with Vh-(G4S)3-Vl linker (Fc fusion)
VH: B1 VH
VL: B1 VL
notes: LA-2 heavy-chain variable region, as the VH of m3; flexible (G4S)3 linker, printed as (G4S)3; LA-2 light-chain variable region, as the VL of m3; Cloned into a modified pcDNA3.4 vector; also called scFv with a Vh-(G4S)3-Vl linker; source: Expi293F, transfected, purified (Protein A-Sepharose 4B)
With B2, the binding result in assay [2] was “binds”.

B3: LA-2 scFv-Fc with the top-performing linker … (Fc fusion)
VH: B1 VH
VL: B1 VL
notes: LA-2 heavy-chain variable region, as the VH of m3; linker between the heavy and light variable regions; LA-2 light-chain variable region, as the VL of m3; source: Lenti-X 293T, transfected (PEI), in supernatant
As for B3, in assay [3], the binding result is recorded as “binds”.

B4: full-length LA-2 monoclonal antibody expressed in liver-specific knock-in mice (antibody, V domains shown)
VH: B1 VH
VL: B1 VL
notes: LA-2 heavy-chain variable region, as the VH of m3; mouse IgG2a heavy-chain constant region; LA-2 light-chain variable region, as the VL of m3; light-chain constant region; Heavy and light chains are made from one transcript with a T2A element between them; residues of T2A may remain on the chains; also called LA-2 antibodies; source: transgenic Mus musculus (knock-in proximal to the albumin …)
With B4, the binding result in assay [4] is on record as “binds”.
